Data taken from article PMC3817407.

T1: ECF02_2817
T1 chain: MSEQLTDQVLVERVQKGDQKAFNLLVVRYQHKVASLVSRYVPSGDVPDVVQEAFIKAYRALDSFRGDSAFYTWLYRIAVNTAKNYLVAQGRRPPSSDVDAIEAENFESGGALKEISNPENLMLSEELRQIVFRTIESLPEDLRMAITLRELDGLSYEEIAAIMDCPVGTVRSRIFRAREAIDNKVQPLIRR

T2: ECF20_992
T2 chain: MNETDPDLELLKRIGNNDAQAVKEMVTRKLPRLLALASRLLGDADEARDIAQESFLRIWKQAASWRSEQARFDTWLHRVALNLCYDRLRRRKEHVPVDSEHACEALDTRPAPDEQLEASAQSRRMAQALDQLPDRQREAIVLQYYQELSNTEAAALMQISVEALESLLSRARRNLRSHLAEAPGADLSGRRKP

T3: ECF14_3200
T3 chain: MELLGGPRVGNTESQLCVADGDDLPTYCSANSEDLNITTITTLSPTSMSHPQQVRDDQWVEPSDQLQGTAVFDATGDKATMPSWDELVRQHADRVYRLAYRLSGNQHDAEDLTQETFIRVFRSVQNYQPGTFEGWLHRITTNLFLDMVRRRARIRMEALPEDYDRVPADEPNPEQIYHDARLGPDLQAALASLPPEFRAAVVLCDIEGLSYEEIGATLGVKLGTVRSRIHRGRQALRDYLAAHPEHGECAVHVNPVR

T4: ECF11_987
T4 chain: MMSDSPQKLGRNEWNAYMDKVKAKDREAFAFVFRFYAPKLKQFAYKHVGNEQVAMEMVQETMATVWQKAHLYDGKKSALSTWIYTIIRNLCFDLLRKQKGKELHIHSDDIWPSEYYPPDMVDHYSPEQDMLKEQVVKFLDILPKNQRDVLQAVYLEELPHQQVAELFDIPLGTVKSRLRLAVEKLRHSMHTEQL

T5: ECF33_375
T5 chain: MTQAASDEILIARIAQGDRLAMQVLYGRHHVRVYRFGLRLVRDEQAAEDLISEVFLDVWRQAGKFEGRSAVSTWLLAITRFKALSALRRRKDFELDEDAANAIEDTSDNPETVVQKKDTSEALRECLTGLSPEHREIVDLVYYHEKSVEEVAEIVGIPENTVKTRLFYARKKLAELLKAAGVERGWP

T6: ECF17_1458
T6 chain: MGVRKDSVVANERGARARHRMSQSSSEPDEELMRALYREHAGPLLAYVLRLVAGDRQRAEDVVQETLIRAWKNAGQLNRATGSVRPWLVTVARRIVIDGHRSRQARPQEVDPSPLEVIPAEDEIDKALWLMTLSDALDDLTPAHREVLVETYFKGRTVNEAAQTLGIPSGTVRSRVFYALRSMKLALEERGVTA

T7: ECF31_34
T7 chain: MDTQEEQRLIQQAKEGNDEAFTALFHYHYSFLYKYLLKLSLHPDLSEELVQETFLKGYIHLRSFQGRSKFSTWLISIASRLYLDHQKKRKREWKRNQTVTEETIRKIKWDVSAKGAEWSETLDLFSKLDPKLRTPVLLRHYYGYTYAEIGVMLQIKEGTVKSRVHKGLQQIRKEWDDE

T8: ECF03_1244
T8 chain: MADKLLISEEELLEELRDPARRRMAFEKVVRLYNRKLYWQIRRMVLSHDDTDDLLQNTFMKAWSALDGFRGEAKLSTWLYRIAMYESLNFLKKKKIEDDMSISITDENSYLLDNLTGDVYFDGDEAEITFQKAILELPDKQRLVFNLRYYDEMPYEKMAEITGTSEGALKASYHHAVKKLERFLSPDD

T9: ECF14_1324
T9 chain: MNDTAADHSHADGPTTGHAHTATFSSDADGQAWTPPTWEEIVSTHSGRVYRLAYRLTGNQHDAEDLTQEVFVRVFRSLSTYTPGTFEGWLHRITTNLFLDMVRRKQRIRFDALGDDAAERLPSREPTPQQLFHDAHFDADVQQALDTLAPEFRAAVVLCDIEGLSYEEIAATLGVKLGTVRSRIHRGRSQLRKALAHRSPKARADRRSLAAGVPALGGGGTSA

T10: ECF22_4450
T10 chain: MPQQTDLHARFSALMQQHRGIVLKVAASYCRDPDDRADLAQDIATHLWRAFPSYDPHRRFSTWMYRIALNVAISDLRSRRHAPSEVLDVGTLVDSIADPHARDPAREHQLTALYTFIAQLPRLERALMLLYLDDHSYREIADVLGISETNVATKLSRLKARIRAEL

T11: ECF03_1198
T11 chain: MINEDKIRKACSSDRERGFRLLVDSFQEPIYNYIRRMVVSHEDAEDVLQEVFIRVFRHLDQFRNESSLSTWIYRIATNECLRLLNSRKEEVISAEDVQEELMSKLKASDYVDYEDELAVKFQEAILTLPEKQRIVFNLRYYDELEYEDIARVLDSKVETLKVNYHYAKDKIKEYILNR

T12: ECF02_915
T12 chain: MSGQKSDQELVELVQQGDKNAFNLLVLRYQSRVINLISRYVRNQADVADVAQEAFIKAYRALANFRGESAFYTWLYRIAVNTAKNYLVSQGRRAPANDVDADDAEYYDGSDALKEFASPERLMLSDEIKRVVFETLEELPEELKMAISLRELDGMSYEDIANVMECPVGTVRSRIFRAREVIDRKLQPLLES

T13: ECF28_1040
T13 chain: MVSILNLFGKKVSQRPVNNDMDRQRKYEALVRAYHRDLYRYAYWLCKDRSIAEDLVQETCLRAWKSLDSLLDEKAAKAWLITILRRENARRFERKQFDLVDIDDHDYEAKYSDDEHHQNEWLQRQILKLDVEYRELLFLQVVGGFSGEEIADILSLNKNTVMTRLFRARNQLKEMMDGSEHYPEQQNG

T14: ECF33_423
T14 chain: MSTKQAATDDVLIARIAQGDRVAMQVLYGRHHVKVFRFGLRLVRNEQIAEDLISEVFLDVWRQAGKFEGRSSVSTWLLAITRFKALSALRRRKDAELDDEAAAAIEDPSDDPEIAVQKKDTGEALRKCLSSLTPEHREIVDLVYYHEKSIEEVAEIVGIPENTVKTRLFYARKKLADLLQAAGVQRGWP

B1: AS27_4265 (protein)
chain: MTGHPDVAEIADLAEGLLPTTRTTEVRQHLESCELCADVYASLTEIQGLLGTLPAPAPMPDDVAARIDAALAAEPPLGIADGTRVSRETSTPADRPAGHARPSSTGPGRKDRRRGGRRRIAVLGAVAAAAAIGIGSVVVSSLTEDSSSGNTAREQQTAIADTFSEGRLKDRVTNLVADGSAENGSRTPRSFGMESENGGETAENHVFKQPTVPECIRKGIGRDDAVIATEPGVYKGREALLVVLPDATNDTQVTAYIVETACVDQPAVGKAKILLEHSYARS
B2: AS25_1643_cl43 (protein)
chain: MTTDSNFNDPCRRQFSRDLPQKMARHTNEATGAMDMVKRDRFELLSAYLGGEVTAAERRQVEDWPANDVAVQRLYSRLLKLRQGIRTMPIPTAQQSPETTAEQVFAKVNRRSRLAWKLGGAAVAACVIGAVTNWLPGRQTGIPQLAQQPQEQPTQAVTTPDALPMIALNNPVIEIPKAAVASPTKFIQPQPQLGEIPPDIN
B3: AS30_35 (protein)
chain: MDKRLQQLREEYKNVQIPKELDIIVEKALQQEPKKKRIVMWPTSAAIAAAILFTALVNINPDAAQAMSKIPVIGKIVKAITFIEIKEEKDQSSIDVKTPALSGLSNKELENSINEKYLKESQQLYKEFIQSTSKNKKGHLSIYSDYETVTDTPDLLSIRRNIETTQASSYTQSRYITIDKKNDILLTLKSLFKDERYIKVISQNIKEQMKQQMKEDPNKIYWLTDEDAEPFKTILPDQTFYITEDHKLVISFDEYEVAPGYMGVTEFTIPTGVISNLLVGERYIR
B4: AS27_1331 (protein)
chain: MSAADKDPDKHSADADPPLTVELLADLQAGLLDDATAARIRSRVRSDPQAQQILRALNRVRRDVAAMGADPAWGPAARPAVVDSISAALRSARPNSSPGAAHAARPHVHPVRMIAGAAGLCAVATAIGVGAVVDAPPPAPSAPTTAQHITVSKPAPVIPLSRPQVLDLLHHTPDYGPPGGPLGDPSRRTSCLSGLGYPASTPVLGAQPIDIDARPAVLLVIPADTPDKLAVFAVAPHCSAADTGLLASTVVPRA
B5: AS31_34 (protein)
chain: MNKEKLSDHLKSEWKKIDQTANPSIPNQKELLHQLSQMKAEYRKKLLQEIILFVFCALMVVSAAILAFTQAPAVFIVLQVCVLAVLPILIAAEKKRHLGECEVKRG
B6: AS25_1645 (protein)
chain: MNESFSQRQTDGDRRRGGDLEMKKNHTSHQHHTDSETPMGHNFEQFQRLSAYFDGEATPAERKEIQHLLDTDPQVKQQYQQLRQLKQALQLLPIPTSISAQYLGQRVLARLRRSQLRTLSLWGSGAIAALFVAGVMGQMPRLNFDRFAKNDPDQQPTAALVETSPQGEEALVVALNRPVLQIPKLATTESP

Target: T1, ECF02_2817

| Binder | fold repression |
| --- | --- |
| B1 | 1.4 |
| B2 | 4.05 |
| B3 | 1.56 |
| B4 | 2.82 |
| B5 | 1.79 |
| B6 | 9.88 |

Target: T2, ECF20_992

| Binder | fold repression |
| --- | --- |
| B1 | 15.2 |
| B2 | 1.99 |
| B3 | 2.34 |
| B4 | 6.81 |
| B5 | 2.35 |
| B6 | 5.73 |

Each binder was assayed against ECF26_4464.

| Binder | fold repression |
| --- | --- |
| B1 | 5.53 |
| B2 | 6.66 |
| B3 | 2.19 |
| B4 | 3.61 |
| B5 | 3.63 |
| B6 | 15.3 |

Target: T3, ECF14_3200

| Binder | fold repression |
| --- | --- |
| B1 | 4.49 |
| B2 | 5.41 |
| B3 | 1.91 |
| B4 | 2.68 |
| B5 | 2.7 |
| B6 | 14.2 |

Target: T4, ECF11_987

| Binder | fold repression |
| --- | --- |
| B1 | 5.93 |
| B2 | 2.43 |
| B3 | 2.11 |
| B4 | 5.69 |
| B5 | 3.03 |
| B6 | 8.87 |

Target: T5, ECF33_375

| Binder | fold repression |
| --- | --- |
| B1 | 1.07 |
| B2 | 0.709 |
| B3 | 1.3 |
| B4 | 4.75 |
| B5 | 2.06 |
| B6 | 3.29 |

Target: T6, ECF17_1458

| Binder | fold repression |
| --- | --- |
| B1 | 2.47 |
| B2 | 2.2 |
| B3 | 1.52 |
| B4 | 2.79 |
| B5 | 4.02 |
| B6 | 7.18 |

Target: T7, ECF31_34

| Binder | fold repression |
| --- | --- |
| B1 | 1.67 |
| B2 | 1.58 |
| B3 | 2.22 |
| B4 | 5.7 |
| B5 | 22.7 |
| B6 | 5.66 |

Target: T8, ECF03_1244

| Binder | fold repression |
| --- | --- |
| B1 | 1.38 |
| B2 | 1.06 |
| B3 | 1.74 |
| B4 | 4.29 |
| B5 | 2.34 |
| B6 | 4.7 |

Target: T9, ECF14_1324

| Binder | fold repression |
| --- | --- |
| B1 | 3.08 |
| B2 | 1.77 |
| B3 | 1.7 |
| B4 | 5.93 |
| B5 | 6.35 |
| B6 | 18.7 |

Target: T10, ECF22_4450

| Binder | fold repression |
| --- | --- |
| B1 | 4.03 |
| B2 | 3.35 |
| B3 | 2.21 |
| B4 | 5.86 |
| B5 | 3.59 |
| B6 | 9.86 |

Target: T11, ECF03_1198

| Binder | fold repression |
| --- | --- |
| B1 | 2.19 |
| B2 | 1.92 |
| B3 | 1.96 |
| B4 | 3.98 |
| B5 | 2.96 |
| B6 | 7.37 |

Target: T12, ECF02_915

| Binder | fold repression |
| --- | --- |
| B1 | 2.41 |
| B2 | 6.67 |
| B3 | 2.15 |
| B4 | 2.72 |
| B5 | 1.32 |
| B6 | 6.91 |

Target: T13, ECF28_1040

| Binder | fold repression |
| --- | --- |
| B1 | 2.19 |
| B2 | 1.09 |
| B3 | 1.32 |
| B4 | 1.5 |
| B5 | 2.22 |
| B6 | 2.95 |

Target: T14, ECF33_423

| Binder | fold repression |
| --- | --- |
| B1 | 1.63 |
| B2 | 1.23 |
| B3 | 1.99 |
| B4 | 5.1 |
| B5 | 2.25 |
| B6 | 4.92 |
